Here are results for 2 substances from PMC9894195.

For test [1], the target named is full-length human Lck-mEGFP (HEK293T) (UniProt P06239). Briefly: sFCCS (line-scan fluorescence cross-correlation spectroscopy) in live cells. The conditions noted are these: HEK293T cells coexpressing mCherry2-tagged CD4 construct with wild-type Lck-mEGFP; read off a plot.
For test [2], the target named is full-length human CD4 with the amphipathic α-helix replaced by a (Gly-Ser)n linker, mCherry2-tagged (human) (UniProt P01730). Briefly: scanning fluorescence cross-correlation spectroscopy (sFCCS); live HEK293T cells on glass coverslips coexpressing mCherry2- and mEGFP-tagged proteins, one coreceptor; line scans at the basal cell surface; cross-correlation quotient q normalised to the tandem control (100%) and Lck^CS/Lck^CS (0%).

The target of test [3] is full-length human CD4 with both the basic-rich region and the amphipathic α-helix replaced by (Gly-Ser)n linkers, mCherry2-tagged (human) (UniProt P01730). The test is described as above.
Test [4] has as its target full-length human CD4 with the unstructured C-terminal tail replaced by a (Gly-Ser)n linker, mCherry2-tagged (human) (UniProt P01730). The description is as above.

In test [1], “full-length human CD4-mCherry2 (HEK293T) (from UniProt P01730) CQC>SQS (both Zn2+ clasp Cys to Ser; no residue numbers printed)” registered an other: normalized cross-correlation quotient q (occupancy) of 1%.
Consider “full-length human Lck-mEGFP (HEK293T) (from UniProt P06239 1-509) (enzyme)”, for which the decrease in CD4/Lck occupancy in test [2] was determined as 27%; in test [3], 28%; in test [4] it was 14%.
